The values that follow come from patent publication US9371374 (AbbVie / Abbott, dated 2016).

The labels stand for the following.
T1: HCV Core1-169 (HCV-1, UniProt P26664 1-169)
T1 construct: also called Solid Phase HCV Core
T1 sequence: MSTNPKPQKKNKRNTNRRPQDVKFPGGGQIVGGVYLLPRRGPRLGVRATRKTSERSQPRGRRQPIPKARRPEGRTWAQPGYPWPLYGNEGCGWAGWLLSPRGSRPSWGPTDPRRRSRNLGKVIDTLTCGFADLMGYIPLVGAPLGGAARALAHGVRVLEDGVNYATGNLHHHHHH

B1: HCV 208A-692 (antibody, V domains shown)
VH: QGQMQQSGAELAKPGASVKLSCKTSGFTFSSSYISWLKQKPGQSLEWIAWIFAGTGNTNYNQKFTDKAQLTVDTSSSTAYMQLSSLTTEDSAIYYCAISGTGFTYWGQGTLVTVSA
VL: EVLMTQSPLSLPVSLGDQASISCRSSQSLEHSNGNTYLEWFLQRPGQPPKLLIYKVSSRFSGVPDRFSGSGSGTDFTLKISRVEAEDLGVYYCFQGSHVPFTFGSGTKLAIKR
B2: HCV 208B-1096 (antibody, V domains shown)
VH: QVQLQQSGAGLAKPGASVKMSCKASGYTFTANKMHWAKQRPGQGLEWIGYIDPSSGYTEYNHKIQYKATLTADTSSSTAYMQLSTLTFEDSAVYYCTNFAYWGQGTLVTVSA
VL: DIVMTQTPLTLSVTIGQPASISCKSSQSLLFTNGKTYLNWFLQRPGQSPKRLIYLLSKLDSGVPDRFSGSGSGTDFTLKISRVEAEDLGVYYCLQSTYFPLTFGAGTKLELKR
B3: HCV 208A-110 (antibody, V domains shown)
VH: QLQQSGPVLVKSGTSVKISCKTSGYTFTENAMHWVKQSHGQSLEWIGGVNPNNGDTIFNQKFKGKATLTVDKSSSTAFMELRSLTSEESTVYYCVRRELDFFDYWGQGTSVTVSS
VL: DIVLTQSPASLAVSLGQRATISCRASQSVSTSRYSYMHWYQQKPGQPPKLLIKYASNLESGVPARFSGSGSGTDFTLNIHPVAEEDTAAYYCQHSWEFPFTFGSGTKLEIKR
B4: HCV 208A-741 (antibody, V domains shown)
VH: QLQQSGPVLVKPGASVMISCKTSGYTFTENAMHWVKQSHGKSLEWIGGVNPNNGDTIFNQKFKGKATLTVDKSSSTAFMELRSLTSEESTVYYCVRRELDFFDYWGQGTSVTVSS
VL: B3 VL with A19T, R24G, Y34F
B5: HCV 208A-293 (antibody, V domains shown)
VH: EVQLQQSGPELVKPGASVKISCKASGFTFTEYAMHWMKQSHGKSLEWIGGINPTNGDAIYNQKFKDKAKLTVDRSSSTAYMELRSLTSDDSALFYCARRELDYFPSWGQGTTLTVSS
VL: B3 VL with A12I, Y34F, M37V, Y40I, A64V, T76I, A83E, A89T, Y91F
B6: HCV 208B-612 (antibody, V domains shown)
VH: EVQLQQSGPELVKPGASVKMSCKASGYRFTSYVMHWVRQKPGQGLEWIGYIDPHNDDTKYSEKFRGKATLTSDKSSTTAYMELSSLTSEDSAVYYCVRYSYDRDYSPMDYWGQGTSVTVSS
VL: QIVLTQSPTLMSASPGEKVTMTCSASSTVTYIYWYQQKPGSSPRLWMYDTFNLVSGVPARFSGSRSGTSYFLTISSMEGEDAATYYCQQYSDSPYTFGGGTKLEIKR
B7: HCV 208A-134 (antibody, V domains shown)
VH: B1 VH with F52Y
VL: B1 VL with S32T
B8: HCV 208B-174 (antibody, V domains shown)
VH: EVKLEESGGGLVQPGGSMKLSCVASGFSFSSYWMSWVRQSPEKGLDWVAEIRLRSDNYATHYAESVKGRFTISRDDSISRLYLQMNTLRAEDTGIYYCTWMTYWGQGTLVTVSA
VL: QNVLTQSPAIMSASPGEKVTMSCSASSSVTYMFWYQLKPESSPRLLIYDTSNLASGVPVRFSGSGSGTSYSLTISRMEAEDAATYYCQEWSSYPLTFGAGTKLDLKR
B9: HCV 208B-471 (antibody, V domains shown)
VH: QGQLQQSGPVLVKPGASEILYCKTSGFTFSSTYISWLKQKPGQSLEWIAWIYAGTGATNYNQKFTGKAQLTVDASSNTAYMHFSGLTPEDSAIYYCAISGAGVYWGQGTLVTVSA
VL: DVVMTQTPLSLPVSLGDQASISCRSSQSLLHSNGNTYLEWYLQKPGQSPNLLIYNVSNRFSGVPDRFSGSGSGTDFALKISRVGAEDLGVYYCFQGSHVPLTFGAGTKLELKR
B10: HCV 208B-547 (antibody, V domains shown)
VH: B2 VH with G10E, A31S, H62Q, Q65K, Y66D, T74K, T85S, F88S
VL: EVVLTQSPAITAASLGQKVTITCRASSSVSYMHWYRQKSGTSPQPWIYEISTLASGVPTRFRASGSGTSYSLTISSMEAEDAAIYYCQQWNYPLTFGAGTKLELKR
B11: HCV 208B-189 (antibody, V domains shown)
VH: QVHLQQSGAELAKPGASVQMSCKASGYTFTANKMHWARQRPRQGLEWIGYIDPASGYTEYNQKIKDRATLTADKSSSTAYMQLSSLTSEDSAVYYCTNFAYWGQGTLVTVST
VL: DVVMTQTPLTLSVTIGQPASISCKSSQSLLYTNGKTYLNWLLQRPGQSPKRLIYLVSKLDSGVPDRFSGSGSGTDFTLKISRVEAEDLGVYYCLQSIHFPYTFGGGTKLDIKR
B12: HCV 208B-672 (antibody, V domains shown)
VH: EVKLVESGGSLVQPGGSLKLSCAASGFNFNTYAMSWVRQTPEKRLEWVAYISNGGGNTYYVDTVKGRFTISRDNAKNTLYLRMSSLKSEDTAMYYCARHGLYWGYSMDYWGQGTSVTVSS
VL: DIQMTQSPSSLSASLGERVSLTCRASQDIGGSINWLQQEPDGTIKRLIYATSSLDSGVPKRFSGSRSGSDYSLTISSLESEDFVDYYCLQYASSPPTFGGGTKLEIKR

Changes are numbered by the printed parent chain.

The first assay concerns the target T1, HCV Core1-169. Briefly: sandwich EIA, NC capture mAb.
As for B1, the OD492 was found to be 0.4 OD.

Regarding B2, the OD492 came out at 0.17 OD.

For B3, the OD492 amounted to 0.15 OD.

The molecule B4 registered an OD492 of 0.29 OD.

B5 gave an OD492 of 0.37 OD.

In turn, B6 showed an OD492 of 0.21 OD.

A further assay addresses T1, HCV Core1-169. Put plainly: sandwich EIA, capture 208B-395-334.
For the molecule B1, the OD492 turned out to be 0.44 OD.

With B2, the OD492 worked out at 0.2 OD.

B3 came in with an OD492 of 0.22 OD.

Take B4: the OD492 was 0.34 OD.

With B5, the OD492 was determined as 0.44 OD.

On to B6, for which the OD492 was found to be 0.83 OD.

A further assay concerns the target HCV Core 134-171-TT peptide (ALRZ-9 peptide) (HCV-1). Briefly: SPR, captured mAb.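 Note: Anti-HCV Core mAbs from hybridoma supernatants held on a rabbit anti-mouse IgG CM5 surface, peptide flowed over 3 min then 4 min dissociation, duplicate concentrations.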 A general note: In SPR one partner is held on a chip, and binding of the other changes the refractive index at the surface.
Consider B7, for which the affinity, expressed as Kd, was 2.1 nM; the dissociation rate constant (koff) was 3.8e-05 s⁻¹; the kon stood at 18000 M⁻¹ s⁻¹.

With B8, the Kd turned out to be 0.25 nM, the off-rate constant (koff) is 0.00018 s⁻¹ and the kon came to 760000 M⁻¹ s⁻¹.

B9 had a Kd of 0.25 nM, an off-rate constant (koff) of 5.5e-05 s⁻¹ and a kon of 220000 M⁻¹ s⁻¹.

In the case of B2, the Kd came to 0.46 nM, the koff worked out at 0.0006 s⁻¹ and the kon was found to be 1.3e+06 M⁻¹ s⁻¹.

B10 gave a Kd of 3.2 nM, a koff of 0.0049 s⁻¹ and an on-rate (kon) of 1.6e+06 M⁻¹ s⁻¹.

The molecule B11 came in with a Kd of 0.17 nM, a koff of 0.00015 s⁻¹ and a kon of 880000 M⁻¹ s⁻¹.

As to B12, the affinity, expressed as Kd, was 0.16 nM; the koff was 0.00034 s⁻¹; the kon worked out at 2.2e+06 M⁻¹ s⁻¹.

As for B3, the Kd is 0.33 nM, the koff was 0.00055 s⁻¹ and the kon worked out at 1.7e+06 M⁻¹ s⁻¹.

The molecule B4 showed a Kd of 0.41 nM, an off-rate constant (koff) of 0.00069 s⁻¹ and an on-rate (kon) of 1.7e+06 M⁻¹ s⁻¹.

In turn, B5 had a Kd of 0.11 nM, a koff of 0.00023 s⁻¹ and an on-rate constant (kon) of 2.1e+06 M⁻¹ s⁻¹.

B6 displayed a Kd of 0.35 nM, a koff of 6.5e-05 s⁻¹ and a kon of 180000 M⁻¹ s⁻¹.

A further assay deals with T1, HCV Core1-169. Briefly: sandwich EIA, capture 208B-612-226.
The molecule B1 had an OD492 of 0.37 OD.

B2 had an OD492 of 0.24 OD.

Turning to B3, the OD492 was found to be 0.2 OD.

Consider B4, for which the OD492 is 0.29 OD.

Consider B5, for which the OD492 was found to be 0.37 OD.

Molecule B6 came in with an OD492 of 0.23 OD.

Another assay has as its target T1, HCV Core1-169. Put plainly: sandwich EIA, capture C11-7.
B1 showed an OD492 of 2.92 OD.

The molecule B2 returned an OD492 of 1.06 OD.

With B3, the OD492 was determined as 0.18 OD.

The molecule B4 registered an OD492 of 2.36 OD.

Regarding B5, the OD492 came out at 2.87 OD.

As for B6, the OD492 turned out to be 1.52 OD.

The target in a further assay is T1, HCV Core1-169. Put plainly: sandwich EIA, capture 208B-741.
B1 displayed an OD492 of 0.44 OD.

As for B2, the OD492 came to 0.23 OD.

In turn, B3 yielded an OD492 of 0.2 OD.

B4: the OD492 is 0.36 OD.

In turn, B5 yielded an OD492 of 0.5 OD.

The molecule B6 returned an OD492 of 0.23 OD.

In a further assay the target is T1, HCV Core1-169. Put plainly: sandwich EIA, capture 208A-110.
Regarding B1, the OD492 stood at 0.54 OD.

Regarding B2, the OD492 is 0.19 OD.

Consider B3, for which the OD492 was determined as 0.18 OD.

Regarding B4, the OD492 stood at 0.42 OD.

In the case of B5, the OD492 is 0.52 OD.

Molecule B6 had an OD492 of 0.26 OD.

Another assay has as its target T1, HCV Core1-169. Briefly: sandwich EIA, capture 208A-692.
As for B1, the OD492 worked out at 0.35 OD.

The molecule B2 registered an OD492 of 0.15 OD.

As for B3, the OD492 is 0.14 OD.

Molecule B4 gave an OD492 of 0.32 OD.

B5 showed an OD492 of 0.34 OD.

For a further assay, the target named is T1, HCV Core1-169. Put plainly: sandwich EIA, capture 208A-207-271.
Regarding B1, the OD492 amounted to 0.39 OD.

B2 had an OD492 of 0.18 OD.

With B3, the OD492 came to 0.17 OD.

B4 registered an OD492 of 0.33 OD.

Molecule B5 displayed an OD492 of 0.39 OD.

The molecule B6 gave an OD492 of 0.24 OD.

The target in the next assay is T1, HCV Core1-169. Briefly: sandwich EIA, capture 208A-557.
In the case of B1, the OD492 amounted to 0.53 OD.

On to B2, for which the OD492 amounted to 0.17 OD.

The molecule B3 showed an OD492 of 0.17 OD.

B4: the OD492 turned out to be 0.4 OD.

In turn, B5 yielded an OD492 of 0.52 OD.

On to B6, for which the OD492 was determined as 0.23 OD.

Another assay addresses T1, HCV Core1-169. Put plainly: sandwich EIA, capture C11-9.
B1 registered an OD492 of 2.66 OD.

B2 displayed an OD492 of 0.33 OD.

In turn, B3 showed an OD492 of 0.13 OD.

B4 showed an OD492 of 2.13 OD.

In turn, B5 registered an OD492 of 2.6 OD.

B6 yielded an OD492 of 0.64 OD.

For another assay, the target named is T1, HCV Core1-169. Briefly: sandwich EIA, capture 208B-1096.
For the molecule B1, the OD492 worked out at 0.38 OD.

B2 registered an OD492 of 0.26 OD.

B3 displayed an OD492 of 0.21 OD.

In the case of B4, the OD492 was 0.52 OD.

In turn, B5 showed an OD492 of 0.41 OD.

The molecule B6 came in with an OD492 of 0.7 OD.

The next assay addresses T1, HCV Core1-169. Briefly: sandwich EIA, capture 208A-293.
The molecule B1 yielded an OD492 of 0.51 OD.

B2: the OD492 was determined as 0.24 OD.

As for B3, the OD492 stood at 0.2 OD.

Regarding B4, the OD492 was 0.42 OD.

As for B5, the OD492 is 0.49 OD.

On to B6, for which the OD492 amounted to 0.28 OD.

The Kd is a measure of binding affinity in units of concentration. A lower Kd goes with a tighter complex. For orientation: koff means the rate constant with which the complex falls apart. Higher therefore signals fast dissociation. For orientation: kon means the second-order rate constant of association. Higher therefore signals fast association.
